Test results reported in the supplement of paper PMC12042874.
± gives the uncertainty stated by the source.

experiment: amyloid nucleation score (Sup35N fusion, yeast selection) (log enrichment); library NNK1; higher = more nucleation; inactive = no reads after selection
How it was run: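 Random libraries were run with three technical output replicates. In each, psi-negative yeast expressing Sup35N fused to peptides of 20 random codons were induced 24 hours with 100 μM copper sulfate and grown 7 days at 30°C on medium lacking adenine and uracil, and input and output plasmid inserts were Illumina-sequenced. The nucleation score is the DiMSum log enrichment of output over input reads, centred on the mode score of non-aggregating sequences, and sequences under 100 input reads were excluded.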

Substance | amyloid nucleation score
GIGMRGVQHSSCEVARYWGS | 1.12 ± 0.35
GIKFQSVGGGVVANSVR | inactive
GILFWSGL | 1.07 ± 0.66
GILYQV | -0.403 ± 0.29
GIQLTVFGLLLCFGTGLKVF | 0.078 ± 0.6
GIRPNIANFSYKVHHPVLRG | inactive
GITLSIAFLKAYLCRSKGGS | 2.62 ± 0.14
GIWCFACMSKFMYTRFSYN | -1.02 ± 0.67
GKISICTRISMYSQSFVWIP | -0.109 ± 0.45
GKNWVRPRPGLVTNTKEYES | -0.46 ± 0.76
GKQHSLS | -1.44 ± 1.9
GKYILYDQCSNTINSGKLSI | inactive
GKYMFPCCMTAITQKLRPRR | -0.108 ± 0.33
GLAWTYLRPW | 0.143 ± 0.32
GLCYNEVDAVASGESGDDRG | -0.376 ± 0.45
GLDFCIVRACTKRYSWNQLG | 1.69 ± 0.56
GLFVREFPLDMIVVMVRSMC | -0.017 ± 0.97
GLGFTGWF | 0.708 ± 0.73
GLKALILNSSSCCRARFGAA | 0.307 ± 0.23
GLKIQPLCS | 0.373 ± 0.49
GLLLSCSWNIDVSA | 0.235 ± 0.56
GLLRLDRVNISALICHQVNV | 0.873 ± 0.62

Substance | amyloid nucleation score
GLPKSFM | -0.981 ± 1.3
GLQSKV | -0.974 ± 2.4
GLRALEMSLSES | inactive
GLRQYF | -0.317 ± 0.84
GLSGPRRQMSYMGWQRVRF | -0.247 ± 1.1
GLTCSKAAIKRLG | -0.367 ± 0.54
GLTINNSI | 0.588 ± 0.38
GLWLKLLVDLKHMKIEHPWH | 0.933 ± 0.72
GMMHYRFLIFFWYTSRTAYW | -0.355 ± 0.84
GMRVMRYYLPRGNQKFGESR | 0.823 ± 0.63
GMWCLFRKCSVA | inactive
GNAFFTYMINNYVSYFWHMP | 6.42 ± 0.059
GNCWYV | -0.16 ± 0.31
GNDLNRREVELGLNSIYKSY | 0.711 ± 0.73
GNKDDTV | -1.6 ± 1.1
GNNLHLRS | -0.121 ± 0.66
GNPGFELWLLSMLIGA | inactive
GNSYLILNGRSYSRIFARSS | inactive
GNVFRLWLNM | 0.369 ± 0.38
GNWTGGYCVCGRQSSLIVVE | -0.016 ± 1.7
GPFGLGSMSGSIKWRYHVCC | 0.528 ± 0.43
GPISLWSPLRSVN | 0.444 ± 0.84

Substance | amyloid nucleation score
GPKKTLMFPSFISDSCARKG | 0.535 ± 1.2
GPLINTDELWIWSAVCCCRL | -0.781 ± 1.9
GPRDFGDAWCYTSNNVKSCS | 0.216 ± 0.48
GPSWFGVPTAAFF | 0.502 ± 0.43
GQHMASNLERMV | 3.34 ± 0.085
GQTITP | -0.689 ± 1
GRFRSTTVWFWVLDVLYGCS | 0.547 ± 0.29
GRFVEMRLEHYRLNSRENSL | -1.75 ± 2.7
GRGANLCYRTRTVLLVNNLS | -0.199 ± 1.2
GRGVPGCGCIRDRSLMTNWS | -0.664 ± 0.41
GRKIDCGRLIMIAVRCNQVA | 0.358 ± 0.41
GRLSGYEWGRKSRSPGRWTV | 0.438 ± 1.1
GRMHKLVNCRAFTGLYKGIY | -1.03 ± 0.62
GRMTFFLVWNCVSFFVTQLL | -0.611 ± 2.1
GRREMEGTHIKKICRGGRTR | 1.53 ± 0.73
GRRYCRANSWLATTSSRISL | 2.1 ± 0.44
GRSLSFLLIGKYWQYTTQAR | inactive
GRVCKHIFK | 0.375 ± 1.2
GRVLDGRILLPVILSVWGCS | -0.563 ± 1.1
GRYILGFE | 2.17 ± 0.17
GSCLIRASFQVHMILSSGHL | inactive
GSDMCKSSVSECIKKLATIQ | inactive

Substance | amyloid nucleation score
GSHSRGY | -0.289 ± 0.36
GSKKYQIMSVSELKVQCCGS | 0.445 ± 0.34
GSKRT | 0.316 ± 0.42
GSMDCLYVSYLGNYENRYRG | 0.232 ± 0.79
GSNLVQKRRCYSWMSLYLSS | 0.333 ± 0.26
GSPLVVSKTVVFMSGNF | 7.149 ± 0.052
GSQIWW | 0.517 ± 0.46
GSQMYNVHVVCVT | 0.154 ± 0.73
GSRLCRMSSSMIGSLRVIWG | -0.146 ± 0.25
GSSRDNGQFYSFELS | 0.398 ± 0.64
GSSRKSIVNIRILPSFALAE | -0.272 ± 0.52
GSTENTVYRRGEFGELVWKC | -0.311 ± 0.44
GSVAFFNLNMLRVLYIIYER | 0.369 ± 0.36
GSWQDSRRNFWSGRGMFERV | 0.484 ± 0.47
GSYGERIGEDVVNFARSYNG | 0.267 ± 0.38
GSYGNDVWRP | -0.041 ± 0.47
GSYWWDCFVNGGYEKFCTVP | 0.191 ± 0.68
GTIWYITLAGRFNDVIIYTM | 2.4 ± 0.077
GTREPDFGCKLDWDSY | 0.924 ± 0.25
GTSSRNLAFLVPWMVYMRVR | 0.635 ± 0.41
